One block for each substance: values may come before it.
Assays:
[1] = molecular target: scrib_human SCRIB (UniProt Q14160)
[2] = molecular target: scrib_human SCRIB (UniProt Q14160); remark: listed apart in the source
[3] = molecular target: dlg1_human DLG1 (UniProt Q12959)
[4] = molecular target: ks6a2_human RPS6KA2 (UniProt Q15349)
[5] = molecular target: crcm_human MCC (UniProt P23508)
[6] = molecular target: crcm_human MCC (UniProt P23508); remark: listed apart in the source
[7] = molecular target: ks6a2_human RPS6KA2 (UniProt Q15349); remark: listed apart in the source
[8] = molecular target: scrib_human SCRIB (UniProt Q14160); remark: listed apart in the source

Sequence of scrib_human SCRIB (Q14160 whole entry): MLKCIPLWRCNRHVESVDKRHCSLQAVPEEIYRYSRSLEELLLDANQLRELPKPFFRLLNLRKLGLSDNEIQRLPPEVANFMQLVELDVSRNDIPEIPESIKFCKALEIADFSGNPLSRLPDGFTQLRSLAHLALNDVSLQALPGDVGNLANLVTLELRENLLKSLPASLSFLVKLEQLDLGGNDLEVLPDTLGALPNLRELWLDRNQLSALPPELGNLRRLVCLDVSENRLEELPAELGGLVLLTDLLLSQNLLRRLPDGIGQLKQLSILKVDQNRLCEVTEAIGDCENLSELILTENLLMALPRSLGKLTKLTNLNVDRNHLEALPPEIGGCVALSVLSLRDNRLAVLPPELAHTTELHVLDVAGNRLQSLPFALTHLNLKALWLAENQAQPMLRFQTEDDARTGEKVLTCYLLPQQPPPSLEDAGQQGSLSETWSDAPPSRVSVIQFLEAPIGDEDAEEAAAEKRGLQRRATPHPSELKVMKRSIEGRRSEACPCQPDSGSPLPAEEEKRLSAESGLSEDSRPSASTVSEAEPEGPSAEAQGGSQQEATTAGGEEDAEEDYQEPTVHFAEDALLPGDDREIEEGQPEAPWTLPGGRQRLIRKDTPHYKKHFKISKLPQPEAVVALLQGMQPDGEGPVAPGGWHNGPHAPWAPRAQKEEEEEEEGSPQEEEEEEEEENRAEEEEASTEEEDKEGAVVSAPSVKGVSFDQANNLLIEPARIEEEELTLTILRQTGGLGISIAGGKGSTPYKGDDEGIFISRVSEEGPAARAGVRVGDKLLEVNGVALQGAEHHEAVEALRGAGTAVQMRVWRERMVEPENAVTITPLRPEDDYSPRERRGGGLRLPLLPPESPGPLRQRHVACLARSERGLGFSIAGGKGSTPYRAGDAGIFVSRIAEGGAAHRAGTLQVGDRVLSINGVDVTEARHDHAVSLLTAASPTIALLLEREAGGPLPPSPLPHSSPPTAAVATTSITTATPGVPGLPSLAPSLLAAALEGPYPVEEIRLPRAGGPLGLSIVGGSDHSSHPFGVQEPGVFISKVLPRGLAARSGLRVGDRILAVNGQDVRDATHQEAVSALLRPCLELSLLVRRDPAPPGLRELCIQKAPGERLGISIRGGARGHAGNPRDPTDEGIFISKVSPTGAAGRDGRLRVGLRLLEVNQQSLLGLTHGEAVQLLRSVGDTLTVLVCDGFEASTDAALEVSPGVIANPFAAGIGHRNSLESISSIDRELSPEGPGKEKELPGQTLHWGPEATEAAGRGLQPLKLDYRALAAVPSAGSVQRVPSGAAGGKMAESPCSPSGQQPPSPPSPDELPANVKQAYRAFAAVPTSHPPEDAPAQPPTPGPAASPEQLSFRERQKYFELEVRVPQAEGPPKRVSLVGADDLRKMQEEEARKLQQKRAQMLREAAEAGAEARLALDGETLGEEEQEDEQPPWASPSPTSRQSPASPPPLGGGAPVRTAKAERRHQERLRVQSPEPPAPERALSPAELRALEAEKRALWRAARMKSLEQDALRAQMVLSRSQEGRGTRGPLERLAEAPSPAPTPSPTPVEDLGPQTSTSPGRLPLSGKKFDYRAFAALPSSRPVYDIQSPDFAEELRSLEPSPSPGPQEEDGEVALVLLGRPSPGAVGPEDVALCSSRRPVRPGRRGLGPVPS
Sequence of ks6a2_human RPS6KA2 (Q15349 whole entry): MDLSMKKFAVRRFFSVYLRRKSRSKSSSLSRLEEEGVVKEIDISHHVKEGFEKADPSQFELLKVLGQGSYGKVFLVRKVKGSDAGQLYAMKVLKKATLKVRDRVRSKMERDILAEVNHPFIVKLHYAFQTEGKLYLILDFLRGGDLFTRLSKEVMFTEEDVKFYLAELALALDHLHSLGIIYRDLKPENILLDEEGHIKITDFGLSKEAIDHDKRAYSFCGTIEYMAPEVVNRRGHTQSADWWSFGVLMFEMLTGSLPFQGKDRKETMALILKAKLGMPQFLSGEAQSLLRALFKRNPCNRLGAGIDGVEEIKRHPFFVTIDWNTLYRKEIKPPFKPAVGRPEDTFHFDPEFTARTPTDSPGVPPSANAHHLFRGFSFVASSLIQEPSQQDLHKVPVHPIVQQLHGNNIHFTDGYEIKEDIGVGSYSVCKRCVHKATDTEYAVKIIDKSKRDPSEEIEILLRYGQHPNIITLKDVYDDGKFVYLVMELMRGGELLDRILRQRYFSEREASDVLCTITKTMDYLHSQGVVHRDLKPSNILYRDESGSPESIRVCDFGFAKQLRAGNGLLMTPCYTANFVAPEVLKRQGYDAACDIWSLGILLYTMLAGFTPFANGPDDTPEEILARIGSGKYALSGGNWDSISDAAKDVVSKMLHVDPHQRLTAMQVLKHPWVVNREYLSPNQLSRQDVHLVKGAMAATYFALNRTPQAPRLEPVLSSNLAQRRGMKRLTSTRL
Sequence of crcm_human MCC (P23508 whole entry): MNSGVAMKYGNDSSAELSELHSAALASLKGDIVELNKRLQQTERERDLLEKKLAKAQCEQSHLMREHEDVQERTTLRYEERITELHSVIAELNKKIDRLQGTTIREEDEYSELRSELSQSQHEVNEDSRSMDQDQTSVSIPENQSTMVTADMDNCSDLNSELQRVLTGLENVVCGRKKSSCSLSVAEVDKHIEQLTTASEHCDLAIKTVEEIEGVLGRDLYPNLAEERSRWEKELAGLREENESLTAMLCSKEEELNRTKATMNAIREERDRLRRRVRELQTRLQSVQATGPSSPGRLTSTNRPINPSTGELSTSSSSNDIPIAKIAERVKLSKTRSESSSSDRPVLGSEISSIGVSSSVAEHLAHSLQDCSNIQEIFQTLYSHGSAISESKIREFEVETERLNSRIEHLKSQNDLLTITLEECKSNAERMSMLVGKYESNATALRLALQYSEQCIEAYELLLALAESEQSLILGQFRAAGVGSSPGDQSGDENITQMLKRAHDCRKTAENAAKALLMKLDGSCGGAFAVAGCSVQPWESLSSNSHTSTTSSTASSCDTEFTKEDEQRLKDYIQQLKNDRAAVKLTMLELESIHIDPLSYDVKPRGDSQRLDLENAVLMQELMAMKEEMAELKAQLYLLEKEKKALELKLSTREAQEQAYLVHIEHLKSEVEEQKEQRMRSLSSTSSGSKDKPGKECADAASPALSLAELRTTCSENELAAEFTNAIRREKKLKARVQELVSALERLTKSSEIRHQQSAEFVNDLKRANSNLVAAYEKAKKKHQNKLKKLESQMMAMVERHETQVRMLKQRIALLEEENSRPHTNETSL
Sequence of dlg1_human DLG1 (Q12959 whole entry, looked up): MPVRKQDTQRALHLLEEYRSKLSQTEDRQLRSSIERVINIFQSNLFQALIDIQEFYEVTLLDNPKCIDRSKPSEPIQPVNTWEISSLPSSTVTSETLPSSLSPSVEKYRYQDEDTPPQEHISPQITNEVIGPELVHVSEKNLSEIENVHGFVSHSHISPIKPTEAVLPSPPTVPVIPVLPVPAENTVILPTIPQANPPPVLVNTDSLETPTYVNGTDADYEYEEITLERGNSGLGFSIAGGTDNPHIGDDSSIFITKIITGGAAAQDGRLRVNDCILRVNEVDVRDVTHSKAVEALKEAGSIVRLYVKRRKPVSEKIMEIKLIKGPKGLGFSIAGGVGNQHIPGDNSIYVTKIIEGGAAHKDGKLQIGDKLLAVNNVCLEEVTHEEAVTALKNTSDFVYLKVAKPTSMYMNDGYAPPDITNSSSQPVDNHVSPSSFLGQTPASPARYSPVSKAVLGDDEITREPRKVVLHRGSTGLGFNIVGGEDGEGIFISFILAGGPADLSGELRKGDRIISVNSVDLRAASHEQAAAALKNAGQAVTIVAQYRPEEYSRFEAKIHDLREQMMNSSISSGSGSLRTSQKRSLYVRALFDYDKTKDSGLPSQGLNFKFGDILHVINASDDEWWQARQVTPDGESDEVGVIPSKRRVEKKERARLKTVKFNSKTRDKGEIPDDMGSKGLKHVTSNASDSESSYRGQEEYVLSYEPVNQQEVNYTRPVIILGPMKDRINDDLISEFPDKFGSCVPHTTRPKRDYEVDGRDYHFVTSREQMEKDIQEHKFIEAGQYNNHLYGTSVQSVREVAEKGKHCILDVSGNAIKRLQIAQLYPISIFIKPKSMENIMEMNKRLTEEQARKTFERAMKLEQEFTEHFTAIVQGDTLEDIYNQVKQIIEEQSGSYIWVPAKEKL
Sequence of Wilms tumor protein 1-interacting protein (Homo sapiens), A6NIX2 S422E (A6NIX2 whole entry S422E): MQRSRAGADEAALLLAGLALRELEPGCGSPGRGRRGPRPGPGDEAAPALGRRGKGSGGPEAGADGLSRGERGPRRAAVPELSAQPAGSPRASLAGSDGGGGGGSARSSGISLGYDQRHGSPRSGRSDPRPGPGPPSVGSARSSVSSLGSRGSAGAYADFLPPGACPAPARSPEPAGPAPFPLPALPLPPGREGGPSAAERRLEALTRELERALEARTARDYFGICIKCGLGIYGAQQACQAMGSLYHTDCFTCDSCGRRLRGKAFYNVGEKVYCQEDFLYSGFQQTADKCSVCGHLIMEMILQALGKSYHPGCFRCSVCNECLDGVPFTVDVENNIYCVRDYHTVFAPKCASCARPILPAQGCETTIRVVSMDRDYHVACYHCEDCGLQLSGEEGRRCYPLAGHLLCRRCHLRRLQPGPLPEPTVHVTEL

effect of a mutation on the interaction [2]: decreasing interaction strength
effect of a mutation on the interaction [3]: decreasing interaction strength
Substance: Protein TANC1 (Homo sapiens), Q9C0D5 S1855E

effect of a mutation on the interaction [4]: increasing interaction strength
Substance: Protein scribble homolog (Homo sapiens), Q14160 A743R

effect of a mutation on the interaction [5]: decreasing interaction strength
effect of a mutation on the interaction [6]: with no effect
effect of a mutation on the interaction [4]: decreasing interaction strength
Substance: Protein scribble homolog (Homo sapiens), Q14160 A743R;R762A

effect of a mutation on the interaction [5]: decreasing interaction strength
effect of a mutation on the interaction [4]: decreasing interaction strength
effect of a mutation on the interaction [7]: increasing interaction strength
Substance: Protein scribble homolog (Homo sapiens), Q14160 R762A

effect of a mutation on the interaction [4]: decreasing interaction strength
Substance: Protein scribble homolog (Homo sapiens), Q14160 R801A

Further lines, the substance ahead of its results:

Substance: Asparagine synthetase domain-containing protein 1 (Homo sapiens), Q9NWL6 T641E
effect of a mutation on the interaction [1]: disrupting interaction strength

Substance: Protein scribble homolog (Homo sapiens), Q14160 K746A
effect of a mutation on the interaction [4]: decreasing interaction strength
effect of a mutation on the interaction [7]: increasing interaction strength

Substance: Wilms tumor protein 1-interacting protein (Homo sapiens), A6NIX2 S422E
effect of a mutation on the interaction [8]: with no effect

Source: IntAct's records for PubMed 30126976
